# Measured values taken from patent US20240116985A1, “STAPLED PEPTIDES AND METHODS THEREOF” (priority 2020, published 2024).
# Starred links: 1 amine or outer side, 2 acyl side, 3 side chain; linkers in the order of their positions; H or OH if unused. Positions of bridges follow the written chain, without caps; N, C: chain ends. Non-standard residues stand in square brackets, D forms with d. Primed or numbered codes have the meaning given here. PyrS2″ = (S)-3-amino-1-((pent-4-en-1-yloxy)carbonyl)pyrrolidine-3-carboxylic acid (stapling residue), C=CCCCOC(=O)N1CC[C@@](N[*:1])(C(=O)[*:2])C1; B5(30) = 2-amino-2-(pent-4-en-1-yl)hept-6-enoic acid (2,2-bis(4-pentenyl)glycine, stitching residue), C=CCCCC(CCCC=C)(N[*:1])C(=O)[*:2]; B5(4) = 2,2-bis(4-pentenyl)glycine = 2-amino-2-(pent-4-en-1-yl)hept-6-enoic acid (stitching residue), C=CCCCC(CCCC=C)(N[*:1])C(=O)[*:2]; B5(5) = 2,2-bis(4-pentenyl)glycine, 2-amino-2-(pent-4-en-1-yl)hept-6-enoic acid (stitching residue), C=CCCCC(CCCC=C)(N[*:1])C(=O)[*:2]; B5(20) = 2-amino-2-(pent-4-en-1-yl)hept-6-enoic acid = bis(4-pentenyl)glycine, stitching residue, C=CCCCC(CCCC=C)(N[*:1])C(=O)[*:2]; Ala(1H-tetrazol-5-yl) = N[C@@H](Cc1nnn[nH]1)C(=O)O; Phe(3-COOH) = N[C@@H](Cc1cccc(C(=O)O)c1)C(=O)O; Phe(2-CF3) = N[C@@H](Cc1ccccc1C(F)(F)F)C(=O)O; Phe(4-NH2) = Nc1ccc(C[C@H](N)C(=O)O)cc1; Ala(2-furyl) = N[C@@H](Cc1ccco1)C(=O)O; Phe(3-Me) = Cc1cccc(C[C@H](N)C(=O)O)c1; Phe(4-Me) = Cc1ccc(C[C@H](N)C(=O)O)cc1; 2Nal = N[C@@H](Cc1ccc2ccccc2c1)C(=O)O; Phe(2-Me) = Cc1ccccc1C[C@H](N)C(=O)O; Abu(4,4-F2) = N[C@@H](CC(F)F)C(=O)O; Bta = N[C@@H](Cc1csc2ccccc12)C(=O)O; Lys(iPr) = CC(C)NCCCC[C@H](N)C(=O)O; αAllylPro = C=CC[C@@]1(C(=O)O)CCCN1; hPhe = N[C@@H](CCc1ccccc1)C(=O)O; tBuAla = CC(C)(C)C[C@H](N)C(=O)O; 2Thi = N[C@@H](Cc1cccs1)C(=O)O; 3Thi = N[C@@H](Cc1ccsc1)C(=O)O; Cha = N[C@@H](CC1CCCCC1)C(=O)O; S8 = C=CCCCCCC[C@](C)(N)C(=O)O; hSer = N[C@@H](CCO)C(=O)O; Nva = CCC[C@H](N)C(=O)O
# B1: I-2454 (peptide)
# peptide: Ac-[αAllylPro]N[Cha][B5(30)]DT[hSer]AFL[PyrS2″]F[Bta]K-NH2
# modifications: staple 1-4, 4-11; not fully specified; printed as Ac-PL3-Asn-Cha-B5-Asp-Thr-Hse-Ala-Phe-Leu-PyrS2-Phe-BztA-Lys-NH2; also: staple -CH=CH- reduced to -CH2-CH2-
# B2: I-2455 (peptide)
# peptide: Ac-[αAllylPro]N[Cha][B5(30)]DT[Lys(iPr)]AFL[PyrS2″]F[Bta]K-NH2
# modifications: staple 1-4, 4-11; not fully specified; printed as Ac-PL3-Asn-Cha-B5-Asp-Thr-iPrLys-Ala-Phe-Leu-PyrS2-Phe-BztA-Lys-NH2; also: staple -CH=CH- reduced to -CH2-CH2-
# B3: I-2452 (peptide)
# peptide: Ac-[αAllylPro]N[Cha][B5(30)]DQ[Lys(iPr)]AFL[PyrS2″][3Thi][Bta]Q-NH2
# modifications: staple 1-4, 4-11; not fully specified; printed as Ac-PL3-Asn-Cha-B5-Asp-Gln-iPrLys-Ala-Phe-Leu-PyrS2-3Thi-BztA-Gln-NH2; also: staple -CH=CH- reduced to -CH2-CH2-
# B4: I-2451 (peptide)
# peptide: Ac-[αAllylPro]N[Cha][B5(30)]DQ[hSer]AFL[PyrS2″][3Thi][Bta]Q-NH2
# modifications: staple 1-4, 4-11; not fully specified; printed as Ac-PL3-Asn-Cha-B5-Asp-Gln-Hse-Ala-Phe-Leu-PyrS2-3Thi-BztA-Gln-NH2; also: staple -CH=CH- reduced to -CH2-CH2-
# B5: I-2446 (peptide)
# peptide: Ac-[αAllylPro]N[Cha][B5(5)]DQ[Lys(iPr)]AFL[PyrS2″][3Thi][Bta]Q-NH2
# modifications: staple 1-4, 4-11; not fully specified; printed as Ac-PL3-Asn-Cha-B5-Asp-Gln-iPrLys-Ala-Phe-Leu-PyrS2-3Thi-BztA-Gln-NH2
# B6: I-2447 (peptide)
# peptide: Ac-[αAllylPro]N[Cha][B5(30)]DT[hSer]AFL[PyrS2″]F[Bta]Q-NH2
# modifications: staple 1-4, 4-11; not fully specified; printed as Ac-PL3-Asn-Cha-B5-Asp-Thr-Hse-Ala-Phe-Leu-PyrS2-Phe-BztA-Gln-NH2
# Target: full-length beta-Catenin (Uniprot ID P35222) (Homo sapiens (Human)) (UniProt P35222)
# Test: FP competition: full-length beta-catenin 10 nM + 5FAM-TCF4(10-53) 10 nM
# Target sequence in this assay (P35222 whole entry): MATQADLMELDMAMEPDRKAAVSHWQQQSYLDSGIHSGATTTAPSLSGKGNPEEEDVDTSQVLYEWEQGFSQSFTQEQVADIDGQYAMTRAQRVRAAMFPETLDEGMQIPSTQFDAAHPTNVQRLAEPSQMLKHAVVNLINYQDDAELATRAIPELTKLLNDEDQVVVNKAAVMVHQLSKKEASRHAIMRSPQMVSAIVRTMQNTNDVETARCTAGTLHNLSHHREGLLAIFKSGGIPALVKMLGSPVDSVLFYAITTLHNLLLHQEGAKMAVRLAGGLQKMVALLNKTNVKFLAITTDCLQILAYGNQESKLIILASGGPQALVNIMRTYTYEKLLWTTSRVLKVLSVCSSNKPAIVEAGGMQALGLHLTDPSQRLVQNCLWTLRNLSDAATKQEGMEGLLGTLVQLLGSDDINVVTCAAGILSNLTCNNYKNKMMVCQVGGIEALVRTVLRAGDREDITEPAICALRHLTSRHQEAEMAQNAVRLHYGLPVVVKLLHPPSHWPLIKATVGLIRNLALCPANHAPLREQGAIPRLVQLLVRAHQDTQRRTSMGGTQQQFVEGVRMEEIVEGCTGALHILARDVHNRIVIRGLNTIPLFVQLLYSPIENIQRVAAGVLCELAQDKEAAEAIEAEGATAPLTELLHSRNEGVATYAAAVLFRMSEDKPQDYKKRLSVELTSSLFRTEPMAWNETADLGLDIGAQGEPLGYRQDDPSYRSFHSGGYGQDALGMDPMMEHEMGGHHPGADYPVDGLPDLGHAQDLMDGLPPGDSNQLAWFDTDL
row,Binder,IC50 [nM]
1,"Ac-[αAllylPro]DA[B5(20)]DEAAFN[S8][3Thi][Bta]H-NH2 (staple 1-4, 4-11; also: later-eluting HPLC peak of staple isomers) [I-516]",23
2,"Ac-[αAllylPro]D[Nva][B5(4)]DEAAFQ[S8]F[Bta]Q-NH2 (staple 1-4, 4-11; also: later eluting HPLC peak staple isomer) [I-523]",44
3,"Ac-[αAllylPro]DA[B5(20)]DEAAFN[S8][3Thi][Bta]Q-NH2 (staple 1-4, 4-11; also: later-eluting HPLC peak of staple isomers) [I-519]",33
4,"Ac-[αAllylPro]DI[B5(20)]DEAAFN[S8][3Thi][Bta]Q-NH2 (staple 1-4, 4-11; also: later-eluting HPLC peak of staple isomers) [I-521]",23
5,"Ac-[αAllylPro]D[Abu(4,4-F2)][B5(4)]DEAAFQ[S8]F[Bta]Q-NH2 (staple 1-4, 4-11) [I-503]",84

# Target: full-length beta-Catenin (Uniprot ID P35222) (Homo sapiens (Human)) (UniProt P35222)
# Test: fluorescence polarization competition; displacement of 5FAM-TCF4(10-53) from full-length beta-catenin
# Target sequence in this assay (P35222 whole entry): as above
row,Binder,EC50 [nM]
1,"Ac-[αAllylPro]D[Abu(4,4-F2)][B5(4)]DEAAFQ[S8]F[Bta]Q-NH2 (staple 1-4, 4-11) [I-503]",84

# Target: full-length beta-Catenin (Uniprot ID P35222) (Homo sapiens (Human)) (UniProt P35222)
# Test: fluorescence polarization competition: full-length beta-catenin + 5FAM-TCF4(10-53) probe, peptide titrated
# Target sequence in this assay (P35222 whole entry): as above
row,Binder,EC50 [nM]
1,"Ac-[αAllylPro]DA[B5(4)]DEAA[2Thi]N[S8]F[Bta]Q-NH2 (staple 1-4, 4-11; also: staple isomer composition, earlier-eluting HPLC peak) [I-446]",130
2,"Ac-[αAllylPro]DA[B5(4)]DEAA[Ala(2-furyl)]N[S8]F[Bta]Q-NH2 (staple 1-4, 4-11) [I-460]",196
3,"Ac-[αAllylPro]DA[B5(4)]D[Ala(1H-tetrazol-5-yl)]AAFN[S8]F[Bta]Q-NH2 (staple 1-4, 4-11) [I-444]",80
4,"Ac-[αAllylPro]DA[B5(4)]DEAA[Phe(4-NH2)]N[S8]F[Bta]Q-NH2 (staple 1-4, 4-11) [I-461]",125
5,"Ac-[αAllylPro]DA[B5(4)]DEAA[Phe(3-Me)]N[S8]F[Bta]Q-NH2 (staple 1-4, 4-11) [I-458]",102
6,"Ac-[αAllylPro]DA[B5(4)]DEAAFN[S8][hPhe][Bta]Q-NH2 (staple 1-4, 4-11; also: staple isomer composition, earlier-eluting HPLC peak) [I-442]",4480
7,"Ac-[αAllylPro]DA[B5(4)]DEAA[2Thi]N[S8]F[Bta]Q-NH2 (staple 1-4, 4-11; also: staple isomer composition, later-eluting HPLC peak) [I-447]",74
8,"Ac-[αAllylPro]DA[B5(4)]DEAAFN[S8][hPhe][Bta]Q-NH2 (staple 1-4, 4-11; also: staple isomer composition, later-eluting HPLC peak) [I-443]",2130
9,"Ac-[αAllylPro]DA[B5(4)]DEAA[Phe(2-Me)]N[S8]F[Bta]Q-NH2 (staple 1-4, 4-11) [I-457]",1440
10,"Ac-[αAllylPro]DA[B5(4)]DEAA[Phe(4-Me)]N[S8]F[Bta]Q-NH2 (staple 1-4, 4-11) [I-459]",183
11,"Ac-[αAllylPro]DA[B5(4)][Ala(1H-tetrazol-5-yl)]DAAFN[S8]F[Bta]Q-NH2 (staple 1-4, 4-11) [I-445]",4960
12,"Ac-[αAllylPro]DA[B5(4)]DEAA[3Thi]N[S8]F[Bta]Q-NH2 (staple 1-4, 4-11) [I-449]",53
13,"Ac-[αAllylPro]DA[B5(4)]DEAA[3Thi]N[S8]F[Bta]Q-NH2 (staple 1-4, 4-11) [I-448]",92
14,"Ac-[αAllylPro]DA[B5(4)]DEAA[Phe(2-Me)]N[S8]F[Bta]Q-NH2 (staple 1-4, 4-11) [I-456]",2170

# Target: full-length beta-Catenin (Uniprot ID P35222) (Homo sapiens (Human)) (UniProt P35222)
# Test: fluorescence polarization competition; full-length beta-catenin, competitor 5FAM-TCF4(10-53) probe
# Target sequence in this assay (P35222 whole entry): as above
row,Binder,IC50 [nM]
1,"Ac-[αAllylPro]DA[B5(4)]DEAA[2Thi]N[S8]F[Bta]Q-NH2 (staple 1-4, 4-11; also: staple isomer composition, earlier-eluting HPLC peak) [I-446]",130
2,"Ac-[αAllylPro]DA[B5(4)]DEAA[Ala(2-furyl)]N[S8]F[Bta]Q-NH2 (staple 1-4, 4-11) [I-460]",196
3,"Ac-[αAllylPro]DA[B5(4)]D[Ala(1H-tetrazol-5-yl)]AAFN[S8]F[Bta]Q-NH2 (staple 1-4, 4-11) [I-444]",80
4,"Ac-[αAllylPro]DA[B5(4)]DEAA[Phe(4-NH2)]N[S8]F[Bta]Q-NH2 (staple 1-4, 4-11) [I-461]",125
5,"Ac-[αAllylPro]DA[B5(4)]DEAA[Phe(3-Me)]N[S8]F[Bta]Q-NH2 (staple 1-4, 4-11) [I-458]",102
6,"Ac-[αAllylPro]DA[B5(4)]DEAAFN[S8][hPhe][Bta]Q-NH2 (staple 1-4, 4-11; also: staple isomer composition, earlier-eluting HPLC peak) [I-442]",4480
7,"Ac-[αAllylPro]DA[B5(4)]DEAA[2Thi]N[S8]F[Bta]Q-NH2 (staple 1-4, 4-11; also: staple isomer composition, later-eluting HPLC peak) [I-447]",74
8,"Ac-[αAllylPro]DA[B5(4)]DEAAFN[S8][hPhe][Bta]Q-NH2 (staple 1-4, 4-11; also: staple isomer composition, later-eluting HPLC peak) [I-443]",2130
9,"Ac-[αAllylPro]DA[B5(4)]DEAA[Phe(2-Me)]N[S8]F[Bta]Q-NH2 (staple 1-4, 4-11) [I-457]",1440
10,"Ac-[αAllylPro]DA[B5(4)]DEAA[Phe(4-Me)]N[S8]F[Bta]Q-NH2 (staple 1-4, 4-11) [I-459]",183
11,"Ac-[αAllylPro]DA[B5(4)][Ala(1H-tetrazol-5-yl)]DAAFN[S8]F[Bta]Q-NH2 (staple 1-4, 4-11) [I-445]",4960
12,"Ac-[αAllylPro]DA[B5(4)]DEAA[3Thi]N[S8]F[Bta]Q-NH2 (staple 1-4, 4-11) [I-449]",53
13,"Ac-[αAllylPro]DA[B5(4)]DEAA[3Thi]N[S8]F[Bta]Q-NH2 (staple 1-4, 4-11) [I-448]",92
14,"Ac-[αAllylPro]DA[B5(4)]DEAA[Phe(2-Me)]N[S8]F[Bta]Q-NH2 (staple 1-4, 4-11) [I-456]",2170

# Target: full-length beta-Catenin (Uniprot ID P35222) (Homo sapiens (Human)) (UniProt P35222)
# Test: fluorescence polarization competition; 10 nM full-length beta-catenin + 10 nM 5FAM-TCF4(10-53) probe, peptide titrated 10 uM to 5 nM
# Target sequence in this assay (P35222 2-781 limits assumed): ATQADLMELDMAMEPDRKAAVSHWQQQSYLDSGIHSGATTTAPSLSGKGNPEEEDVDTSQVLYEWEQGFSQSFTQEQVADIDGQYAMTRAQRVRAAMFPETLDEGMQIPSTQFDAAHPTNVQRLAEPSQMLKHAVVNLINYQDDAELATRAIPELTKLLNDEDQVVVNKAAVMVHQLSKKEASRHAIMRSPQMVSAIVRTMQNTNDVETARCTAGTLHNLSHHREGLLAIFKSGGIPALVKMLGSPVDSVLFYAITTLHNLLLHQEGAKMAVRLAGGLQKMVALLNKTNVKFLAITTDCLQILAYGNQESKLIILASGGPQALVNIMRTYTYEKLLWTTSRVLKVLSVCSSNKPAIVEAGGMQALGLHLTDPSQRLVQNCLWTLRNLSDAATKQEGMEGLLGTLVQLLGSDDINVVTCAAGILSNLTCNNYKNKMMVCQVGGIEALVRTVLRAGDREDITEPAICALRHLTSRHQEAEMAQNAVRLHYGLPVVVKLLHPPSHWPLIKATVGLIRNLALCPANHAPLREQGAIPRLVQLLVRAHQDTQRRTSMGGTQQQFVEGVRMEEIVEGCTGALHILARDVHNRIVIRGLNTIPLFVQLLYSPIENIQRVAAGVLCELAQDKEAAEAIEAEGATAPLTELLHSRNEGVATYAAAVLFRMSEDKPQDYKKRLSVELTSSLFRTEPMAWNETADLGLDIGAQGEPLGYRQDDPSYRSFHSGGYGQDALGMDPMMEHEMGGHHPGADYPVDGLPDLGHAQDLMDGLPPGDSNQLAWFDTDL
row,Binder,IC50 [nM]
1,B1,10000
2,"Ac-[αAllylPro]N[Cha][B5(30)]DT[hSer]AFL[PyrS2″]F[Bta]K-NH2 (staple 1-4, 4-11) [I-2449]",10000
3,"Ac-[αAllylPro]D[tBuAla][B5(4)]D[Phe(3-COOH)]QAFL[PyrS2″][Phe(2-CF3)][RbMeBztA]A-NH2 (staple 1-4, 4-11) [I-2459]",56
4,"Ac-[αAllylPro]N[Cha][B5(4)]DT[Lys(iPr)]AFL[PyrS2″]F[Bta]K-NH2 (staple 1-4, 4-11) [I-2450]",63
5,B2,10000
6,B3,7200
7,"Ac-[αAllylPro]D[tBuAla][B5(4)]D[Phe(3-COOH)]QAFL[PyrS2″][Phe(2-CF3)][SbMeBztA]A-NH2 (staple 1-4, 4-11) [I-2457]",52
8,"Ac-[αAllylPro]D[tBuAla][B5(4)]D[Phe(3-COOH)]QAFL[PyrS2″][Phe(2-CF3)][2Nal]A-NH2 (staple 1-4, 4-11) [I-2461]",75
9,B4,4860
10,B5,93
11,B6,3250
